# Source: publication PMC3290565, “Pentachlorophenol Induction of the Pseudomonas aeruginosa mexAB-oprM Efflux Operon: Involvement of Repressors NalC and MexR and the Antirepressor ArmR”
# B1: NalC-1 (endpoints III) (dsDNA)
# DNA 1: TGGTCATTTAAGAACTGTATCGTACAGTACTGTTTTGGCAA
# DNA 2: TTGCCAAAACAGTACTGTACGATACAGTTCTTAAATGACCA
# B2: NalC-2 (endpoints IV) (dsDNA)
# DNA 1: TTGGCAAGCACTTCCGCTCATTCCTCCGCCTTGCCTCCCGC
# DNA 2: GCGGGAGGCAAGGCGGAGGAATGAGCGGAAGTGCTTGCCAA
# B3: 21-bp inverted repeat only (dsDNA)
# DNA 1: AGAACTGTATCGTACAGTACT
# DNA 2: AGTACTGTACGATACAGTTCT
# Tests used:
# NalC-His [1] = molecular target: T1, NalC-His (Pseudomonas aeruginosa K767, UniProt Q9HXS0 1-213); assay: EMSA; 300-2000 ng NalC-His, 40 ng DNA; details: protein: recombinant; tags: C-terminal His (pET23a); chain copies: 2; blunt
# NalC-His [2] = molecular target: T1, NalC-His; assay: EMSA; data not shown; details: protein: recombinant; tags: C-terminal His (pET23a); chain copies: 2
Binder,binding result (NalC-His [1]),binding result (NalC-His [2])
B1,binds,–
B2,no binding,–
B3,–,no binding
